# According to patent publication US20120172293A1 (Takeda / Millennium, published 2012):
# Starred links: 1 amine or outer side, 2 acyl side, 3 side chain; linkers in the order of their positions; H or OH if unused. Non-standard residues stand in square brackets, D forms with d. No end group written: not given here. *: point of attachment. Ala(piperidin-4-yl) = O=C([C@H](CC1CCN([*:3])CC1)N[*:1])[*:2]; X7 = (tetrahydro-2H-pyran-4-yl)carbamoyl, O=C(NC1CCOCC1)*; (3-carboxypropyl)carbamoyl = O=C(O)CCCNC(=O)*; (carboxymethyl)carbamoyl = O=C(O)CNC(=O)*; Imidazole4carbonyl = O=C(c1cnc[nH]1)*; Arg(Me) = CNC(=N)NCCC[C@H](N)C(=O)O; hArg = N=C(N)NCCCC[C@H](N)C(=O)O; 4Pal = N[C@@H](Cc1ccncc1)C(=O)O; Cha = N[C@@H](CC1CCCCC1)C(=O)O; Isonicotinoyl = O=C(c1ccncc1)*; Suc = O=C(CCC(=O)[*:2])[*:1]; Iva = CC[C@](C)(N)C(=O)O; Nle = CCCC[C@H](N)C(=O)O; Aib = CC(C)(N)C(=O)O; Ahx = NCCCCCC(=O)O
# B1: 4-Imidazolecarbonyl-[D-Pro24, Nle25, Pya(4)26, Cha27,36, Aib28,31, Lys30]-PYY(23-36) (peptide)
# peptide: Imidazole4carbonyl-S[dP][Nle][4Pal][Cha][Aib]NK[Aib]TRQR[Cha]-NH2
# SMILES: CCCC[C@H](NC(=O)[C@H]1CCCN1C(=O)[C@H](CO)NC(=O)c1cnc[nH]1)C(=O)N[C@@H](Cc1ccncc1)C(=O)N[C@@H](CC1CCCCC1)C(=O)NC(C)(C)C(=O)N[C@@H](CC(N)=O)C(=O)N[C@@H](CCCCN)C(=O)NC(C)(C)C(=O)N[C@H](C(=O)N[C@@H](CCCNC(=N)N)C(=O)N[C@@H](CCC(N)=O)C(=O)N[C@@H](CCCNC(=N)N)C(=O)N[C@@H](CC1CCCCC1)C(N)=O)[C@@H](C)O
# B2: 4-Pyridinecarbonyl-[D-Pro24, Iva25, Pya(4)26, Cha27,36, Aib28,31, Lys30]-PYY(23-36) (peptide)
# peptide: Isonicotinoyl-S[dP][Iva][4Pal][Cha][Aib]NK[Aib]TRQR[Cha]-NH2
# SMILES: CC[C@](C)(NC(=O)[C@H]1CCCN1C(=O)[C@H](CO)NC(=O)c1ccncc1)C(=O)N[C@@H](Cc1ccncc1)C(=O)N[C@@H](CC1CCCCC1)C(=O)NC(C)(C)C(=O)N[C@@H](CC(N)=O)C(=O)N[C@@H](CCCCN)C(=O)NC(C)(C)C(=O)N[C@H](C(=O)N[C@@H](CCCNC(=N)N)C(=O)N[C@@H](CCC(N)=O)C(=O)N[C@@H](CCCNC(=N)N)C(=O)N[C@@H](CC1CCCCC1)C(N)=O)[C@@H](C)O
# B3: Ac-[D-Pro24, Iva25, Pya(4)26, Cha27,36, Aib28,31, Har30]-PYY(23-36) (peptide)
# peptide: Ac-S[dP][Iva][4Pal][Cha][Aib]N[hArg][Aib]TRQR[Cha]-NH2
# SMILES: CC[C@](C)(NC(=O)[C@H]1CCCN1C(=O)[C@H](CO)NC(C)=O)C(=O)N[C@@H](Cc1ccncc1)C(=O)N[C@@H](CC1CCCCC1)C(=O)NC(C)(C)C(=O)N[C@@H](CC(N)=O)C(=O)N[C@@H](CCCCNC(=N)N)C(=O)NC(C)(C)C(=O)N[C@H](C(=O)N[C@@H](CCCNC(=N)N)C(=O)N[C@@H](CCC(N)=O)C(=O)N[C@@H](CCCNC(=N)N)C(=O)N[C@@H](CC1CCCCC1)C(N)=O)[C@@H](C)O
# B4: 4-Imidazolecarbonyl-[D-Pro24, Iva25, Pya(4)26, Cha27,30,36, Aib28,31]-PYY(23-36) (peptide)
# peptide: Imidazole4carbonyl-S[dP][Iva][4Pal][Cha][Aib]N[Cha][Aib]TRQR[Cha]-NH2
# SMILES: CC[C@](C)(NC(=O)[C@H]1CCCN1C(=O)[C@H](CO)NC(=O)c1cnc[nH]1)C(=O)N[C@@H](Cc1ccncc1)C(=O)N[C@@H](CC1CCCCC1)C(=O)NC(C)(C)C(=O)N[C@@H](CC(N)=O)C(=O)N[C@@H](CC1CCCCC1)C(=O)NC(C)(C)C(=O)N[C@H](C(=O)N[C@@H](CCCNC(=N)N)C(=O)N[C@@H](CCC(N)=O)C(=O)N[C@@H](CCCNC(=N)N)C(=O)N[C@@H](CC1CCCCC1)C(N)=O)[C@@H](C)O
# B5: [Acp23, D-Pro24, Pya(4)26, Cha27,36, Aib28,31, Lys30]-PYY(23-36) (peptide)
# peptide: [Ahx][dP]R[4Pal][Cha][Aib]NK[Aib]TRQR[Cha]-NH2
# modifications: not fully specified (N-terminus); printed as Ac-Acp-D-Pro-Arg-Pya(4)-Cha-Aib-Asn-Lys-Aib-Thr-Arg-Gln-Arg-Cha-NH2
# B6: (Carboxymethyl)carbamoyl-[D-Pro24, Iva25, Pya(4)26, Cha27,36, Aib28,31, Lys30]-PYY(23-36) (peptide)
# peptide: {(carboxymethyl)carbamoyl}-S[dP][Iva][4Pal][Cha][Aib]NK[Aib]TRQR[Cha]-NH2
# SMILES: CC[C@](C)(NC(=O)[C@H]1CCCN1C(=O)[C@H](CO)NC(=O)NCC(=O)O)C(=O)N[C@@H](Cc1ccncc1)C(=O)N[C@@H](CC1CCCCC1)C(=O)NC(C)(C)C(=O)N[C@@H](CC(N)=O)C(=O)N[C@@H](CCCCN)C(=O)NC(C)(C)C(=O)N[C@H](C(=O)N[C@@H](CCCNC(=N)N)C(=O)N[C@@H](CCC(N)=O)C(=O)N[C@@H](CCCNC(=N)N)C(=O)N[C@@H](CC1CCCCC1)C(N)=O)[C@@H](C)O
# B7: 4-Imidazolecarbonyl-[D-Pro24, Iva25, Pya(4)26, Cha27,36, Aib28,31, Lys30]-PYY(23-36) (peptide)
# peptide: Imidazole4carbonyl-S[dP][Iva][4Pal][Cha][Aib]NK[Aib]TRQR[Cha]-NH2
# SMILES: CC[C@](C)(NC(=O)[C@H]1CCCN1C(=O)[C@H](CO)NC(=O)c1cnc[nH]1)C(=O)N[C@@H](Cc1ccncc1)C(=O)N[C@@H](CC1CCCCC1)C(=O)NC(C)(C)C(=O)N[C@@H](CC(N)=O)C(=O)N[C@@H](CCCCN)C(=O)NC(C)(C)C(=O)N[C@H](C(=O)N[C@@H](CCCNC(=N)N)C(=O)N[C@@H](CCC(N)=O)C(=O)N[C@@H](CCCNC(=N)N)C(=O)N[C@@H](CC1CCCCC1)C(N)=O)[C@@H](C)O
# B8: (3-Carboxypropyl)carbamoyl-[D-Pro24, Iva25, Pya(4)26, Cha27,36, Aib28,31, Lys30]-PYY(23-36) (peptide)
# peptide: {(3-carboxypropyl)carbamoyl}-S[dP][Iva][4Pal][Cha][Aib]NK[Aib]TRQR[Cha]-NH2
# SMILES: CC[C@](C)(NC(=O)[C@H]1CCCN1C(=O)[C@H](CO)NC(=O)NCCCC(=O)O)C(=O)N[C@@H](Cc1ccncc1)C(=O)N[C@@H](CC1CCCCC1)C(=O)NC(C)(C)C(=O)N[C@@H](CC(N)=O)C(=O)N[C@@H](CCCCN)C(=O)NC(C)(C)C(=O)N[C@H](C(=O)N[C@@H](CCCNC(=N)N)C(=O)N[C@@H](CCC(N)=O)C(=O)N[C@@H](CCCNC(=N)N)C(=O)N[C@@H](CC1CCCCC1)C(N)=O)[C@@H](C)O
# B9: Ac-[Glu23, D-Pro24, Iva25, Pya(4)26, Cha27,36, Aib28,31, Lys30]-PYY(23-36) (peptide)
# peptide: Ac-E[dP][Iva][4Pal][Cha][Aib]NK[Aib]TRQR[Cha]-NH2
# SMILES: CC[C@](C)(NC(=O)[C@H]1CCCN1C(=O)[C@H](CCC(=O)O)NC(C)=O)C(=O)N[C@@H](Cc1ccncc1)C(=O)N[C@@H](CC1CCCCC1)C(=O)NC(C)(C)C(=O)N[C@@H](CC(N)=O)C(=O)N[C@@H](CCCCN)C(=O)NC(C)(C)C(=O)N[C@H](C(=O)N[C@@H](CCCNC(=N)N)C(=O)N[C@@H](CCC(N)=O)C(=O)N[C@@H](CCCNC(=N)N)C(=O)N[C@@H](CC1CCCCC1)C(N)=O)[C@@H](C)O
# B10: (Tetrahydro-2H-pyran-4-yl)carbamoyl-[D-Pro24, Iva25, Pya(4)26, Cha27,36, Aib28,31, Lys30]-PYY(23-36) (peptide)
# peptide: X7-S[dP][Iva][4Pal][Cha][Aib]NK[Aib]TRQR[Cha]-NH2
# SMILES: CC[C@](C)(NC(=O)[C@H]1CCCN1C(=O)[C@H](CO)NC(=O)NC1CCOCC1)C(=O)N[C@@H](Cc1ccncc1)C(=O)N[C@@H](CC1CCCCC1)C(=O)NC(C)(C)C(=O)N[C@@H](CC(N)=O)C(=O)N[C@@H](CCCCN)C(=O)NC(C)(C)C(=O)N[C@H](C(=O)N[C@@H](CCCNC(=N)N)C(=O)N[C@@H](CCC(N)=O)C(=O)N[C@@H](CCCNC(=N)N)C(=O)N[C@@H](CC1CCCCC1)C(N)=O)[C@@H](C)O
# B11: Ac-[Arg23, D-Pro24, Iva25, Pya(4)26, Cha27,36, Aib28,31, Lys30]-PYY(23-36) (peptide)
# peptide: Ac-R[dP][Iva][4Pal][Cha][Aib]NK[Aib]TRQR[Cha]-NH2
# SMILES: CC[C@](C)(NC(=O)[C@H]1CCCN1C(=O)[C@H](CCCNC(=N)N)NC(C)=O)C(=O)N[C@@H](Cc1ccncc1)C(=O)N[C@@H](CC1CCCCC1)C(=O)NC(C)(C)C(=O)N[C@@H](CC(N)=O)C(=O)N[C@@H](CCCCN)C(=O)NC(C)(C)C(=O)N[C@H](C(=O)N[C@@H](CCCNC(=N)N)C(=O)N[C@@H](CCC(N)=O)C(=O)N[C@@H](CCCNC(=N)N)C(=O)N[C@@H](CC1CCCCC1)C(N)=O)[C@@H](C)O
# B12: 3-Carboxypropionyl-[D-Pro24, Pya(4)26, Cha27,36, Aib28,31, Lys30]-PYY(24-36) (peptide)
# peptide: Suc-[dP]R[4Pal][Cha][Aib]NK[Aib]TRQR[Cha]-NH2
# SMILES: C[C@@H](O)[C@H](NC(=O)C(C)(C)NC(=O)[C@H](CCCCN)NC(=O)[C@H](CC(N)=O)NC(=O)C(C)(C)NC(=O)[C@H](CC1CCCCC1)NC(=O)[C@H](Cc1ccncc1)NC(=O)[C@H](CCCNC(=N)N)NC(=O)[C@H]1CCCN1C(=O)CCC(=O)O)C(=O)N[C@@H](CCCNC(=N)N)C(=O)N[C@@H](CCC(N)=O)C(=O)N[C@@H](CCCNC(=N)N)C(=O)N[C@@H](CC1CCCCC1)C(N)=O
# B13: Ac-[D-Pro24, Arg(Me)25,30, Pya(4)26, Cha27,36, Aib28,31]-PYY(23-36) (peptide)
# peptide: Ac-S[dP][Arg(Me)][4Pal][Cha][Aib]N[Arg(Me)][Aib]TRQR[Cha]-NH2
# SMILES: CNC(=N)NCCC[C@H](NC(=O)[C@H](CC(N)=O)NC(=O)C(C)(C)NC(=O)[C@H](CC1CCCCC1)NC(=O)[C@H](Cc1ccncc1)NC(=O)[C@H](CCCNC(=N)NC)NC(=O)[C@H]1CCCN1C(=O)[C@H](CO)NC(C)=O)C(=O)NC(C)(C)C(=O)N[C@H](C(=O)N[C@@H](CCCNC(=N)N)C(=O)N[C@@H](CCC(N)=O)C(=O)N[C@@H](CCCNC(=N)N)C(=O)N[C@@H](CC1CCCCC1)C(N)=O)[C@@H](C)O
# Target: human Y2 receptor (human) (UniProt P49146)
# Sequence (P49146 whole entry): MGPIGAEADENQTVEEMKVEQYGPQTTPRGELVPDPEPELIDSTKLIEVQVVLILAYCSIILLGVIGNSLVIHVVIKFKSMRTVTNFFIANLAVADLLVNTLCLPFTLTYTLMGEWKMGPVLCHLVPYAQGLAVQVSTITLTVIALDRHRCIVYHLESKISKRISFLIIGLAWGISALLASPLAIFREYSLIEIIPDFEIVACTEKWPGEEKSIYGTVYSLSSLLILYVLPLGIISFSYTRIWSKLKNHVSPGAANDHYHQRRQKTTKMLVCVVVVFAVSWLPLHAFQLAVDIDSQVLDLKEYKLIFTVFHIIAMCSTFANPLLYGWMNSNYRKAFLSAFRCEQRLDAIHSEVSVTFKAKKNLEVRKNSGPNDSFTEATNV
# Test: RBA: displacement of [125I]-PYY from hY2R/CHO membranes
row,IC50 Ratio (IC50 compound/IC50 PYY(3-36)),Binder
1,1.7,B1
2,1,B2
3,0.65,B3
4,2.3,B4
5,18,"Ac-S[dP][Ala(piperidin-4-yl)][4Pal][Cha][Aib]NK[Aib]TRQR[Cha]-NH2 (also: Ala(4Pip)25 D or L, not assigned, former peak isomer) [Ac-[D-Pro24, Ala(4Pip)25, Pya(4)26, Cha27,36, Aib28,31, Lys30]-PYY(23-36) former peak]"
6,0.32,B5
7,4.3,"Ac-S[dP][Ala(piperidin-4-yl)][4Pal][Cha][Aib]NK[Aib]TRQR[Cha]-NH2 (also: Ala(4Pip)25 D or L, not assigned, later peak isomer) [Ac-[D-Pro24, Ala(4Pip)25, Pya(4)26, Cha27,36, Aib28,31, Lys30]-PYY(23-36) later peak]"
8,3,B6
9,0.77,B7
10,1.6,B8
11,6.1,B9
12,1.7,B10
13,2.4,"Ac-S[dP][Iva][4Pal][Cha][Aib]N[Arg(Me)][Aib]TRQR[Cha]-NH2 [Ac-[D-Pro24, Iva25, Pya(4)26, Cha27,36, Aib28,31, Arg(Me)30]-PYY(23-36)]"
14,0.88,B11
15,1.2,B12
16,1.5,B13

# Target: human Y2 receptor (human) (UniProt P49146)
# Test: cell-based or functional assay
row,GBA EC50 Ratio ([35S]GTPγS binding) (EC50 compound/EC50 PYY(3-36)),Binder
1,1.2,B1
2,1.1,B2
3,1,B3
4,1.9,B4
5,14,"Ac-S[dP][Ala(piperidin-4-yl)][4Pal][Cha][Aib]NK[Aib]TRQR[Cha]-NH2 (also: Ala(4Pip)25 D or L, not assigned, former peak isomer) [Ac-[D-Pro24, Ala(4Pip)25, Pya(4)26, Cha27,36, Aib28,31, Lys30]-PYY(23-36) former peak]"
6,1.1,B5
7,5.8,"Ac-S[dP][Ala(piperidin-4-yl)][4Pal][Cha][Aib]NK[Aib]TRQR[Cha]-NH2 (also: Ala(4Pip)25 D or L, not assigned, later peak isomer) [Ac-[D-Pro24, Ala(4Pip)25, Pya(4)26, Cha27,36, Aib28,31, Lys30]-PYY(23-36) later peak]"
8,1.6,B6
9,0.91,B7
10,1.9,B8
11,2.8,B9
12,1.8,B10
13,1.7,"Ac-S[dP][Iva][4Pal][Cha][Aib]N[Arg(Me)][Aib]TRQR[Cha]-NH2 [Ac-[D-Pro24, Iva25, Pya(4)26, Cha27,36, Aib28,31, Arg(Me)30]-PYY(23-36)]"
14,0.78,B11
15,1.2,B12
16,1.5,B13
